Test results: patent US20210246204A1 (Alector, published 2021)
Substitutions are numbered along the chain they refer to.

B1: S7AB-H8.1 (antibody, V domains shown)
VH: QVQLVQSGAEVKKPGASVKVSCKASGYAFTETWMNWVRQAPGQGLEWIGRIFPGLGHTNYAQKFQGRATLTEDTSTSTAYMELSSLRSEDTAVYYCARDYSDYYFDYWGQGTLVTVSS
VL: DIQMTQSPSSLSASVGDRVTITCRGSQDINTYLNWYQQKPGKAPKLLIYYTSRLHSGVPSRFSGSGSGTDYTLTISSLQPEDFATYYCQQGNLLPWTFGQGTKLEIK
B2: S7AB-H8.2 (antibody, V domains shown)
VH: B1 VH with E31M, T32A, L55Y
VL: B1 VL
B3: S7AB-H8.3 (antibody, V domains shown)
VH: B1 VH with E31G, T32Y
VL: B1 VL
B4: S7AB-H8.4 (antibody, V domains shown)
VH: B1 VH with E31A, T32A
VL: B1 VL
B5: S7AB-H8.5 (antibody, V domains shown)
VH: B1 VH with T32A, L55Y
VL: B1 VL
B6: S7AB-H8.6 (antibody, V domains shown)
VH: B1 VH
VL: B1 VL with L93T, L94K
B7: S7AB-H8.9.1 (antibody, V domains shown)
VH: B1 VH with E31A, T32A, G44R
VL: B1 VL with L93T, L94K
B8: S7AB-H8.9.2 (antibody, V domains shown)
VH: B1 VH with E31A, T32A, P41R, G44R
VL: B1 VL with L93T, L94K
B9: S7AB-H8.10.1 (antibody, V domains shown)
VH: B1 VH with T32A, G44R, L55Y
VL: B1 VL with L93T, L94K
B10: S7AB-H8.10.2 (antibody, V domains shown)
VH: B1 VH with T32A, P41R, G44R, L55Y
VL: B1 VL with L93T, L94K
B11: S7AB-H8.29.1 (antibody, V domains shown)
VH: B1 VH with E31A, T32A, G44R
VL: B1 VL with G25A, I29A
B12: S7AB-H8.29.2 (antibody, V domains shown)
VH: B1 VH with E31A, T32A, P41R, G44R
VL: B1 VL with G25A, I29A
B13: S7AB-H8.30.1 (antibody, V domains shown)
VH: B1 VH with T32A, G44R, L55Y
VL: B1 VL with G25A, I29A
B14: S7AB-H8.30.2 (antibody, V domains shown)
VH: B1 VH with T32A, P41R, G44R, L55Y
VL: B1 VL with G25A, I29A
B15: S7AB-H8.34.1 (antibody, V domains shown)
VH: B1 VH with E31A, T32A, G44R
VL: B1 VL with N92G, L93T
B16: S7AB-H8.34.2 (antibody, V domains shown)
VH: B1 VH with E31A, T32A, P41R, G44R
VL: B1 VL with N92G, L93T
B17: S7AB-H8.35.1 (antibody, V domains shown)
VH: B1 VH with T32A, G44R, L55Y
VL: B1 VL with N92G, L93T
B18: S7AB-H8.35.2 (antibody, V domains shown)
VH: B1 VH with T32A, P41R, G44R, L55Y
VL: B1 VL with N92G, L93T
B19: S7AB-H8.44.1 (antibody, V domains shown)
VH: B1 VH with E31A, T32A, G44R
VL: B1 VL with L93I
B20: S7AB-H8.44.2 (antibody, V domains shown)
VH: B1 VH with E31A, T32A, P41R, G44R
VL: B1 VL with L93I
B21: S7AB-H8.45.1 (antibody, V domains shown)
VH: B1 VH with T32A, G44R, L55Y
VL: B1 VL with L93I
B22: S7AB-H8.45.2 (antibody, V domains shown)
VH: B1 VH with T32A, P41R, G44R, L55Y
VL: B1 VL with L93I
B23: S7AB chimeric antibody (antibody, V domains shown)
VH: QVHLQQSGPELVKPGASVKISCKASGYAFTNCWMNWVRQRPGKGLDWIGRIFPGNGHTNYSGKFKDKATLTEDKSSSTAYMQLSSLTSEDSAVYFCARDYSDYYFDYWGQGTTLTVSS
VL: DVQMTQTTSSLSASLGDRVTISCRASQDINTYLNWYQQKPDGTVKLLIYYTSRLHSGVPSRFSGSGSGTDYSLTISNLEQEDIATYFCQQGNTLPWTFGGGTKLEIK

What follows are binders tested against human Siglec-7 on primary human monocyte-derived dendritic cells (human, UniProt Q9Y286 19-467) (assay: cell-based or functional assay).
Sequence of human Siglec-7 on primary human monocyte-derived dendritic cells (Q9Y286 19-467): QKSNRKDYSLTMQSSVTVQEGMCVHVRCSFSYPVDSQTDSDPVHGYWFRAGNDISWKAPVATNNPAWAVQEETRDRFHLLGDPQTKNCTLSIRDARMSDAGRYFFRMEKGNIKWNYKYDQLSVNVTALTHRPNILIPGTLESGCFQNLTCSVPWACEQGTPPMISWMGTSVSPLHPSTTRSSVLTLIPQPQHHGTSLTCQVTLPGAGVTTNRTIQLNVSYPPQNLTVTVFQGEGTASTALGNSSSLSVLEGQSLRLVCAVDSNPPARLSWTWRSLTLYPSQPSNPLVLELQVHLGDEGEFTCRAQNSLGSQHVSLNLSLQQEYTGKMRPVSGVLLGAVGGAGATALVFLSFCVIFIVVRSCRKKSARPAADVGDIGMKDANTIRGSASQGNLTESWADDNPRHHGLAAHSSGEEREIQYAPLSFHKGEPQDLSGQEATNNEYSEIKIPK

| Binder | Fold increase in potency compared to AB-H8 | Fold increase in potency compared to Chimeric Ab | Maximal downregulation (% Siglec-7 remaining) | Receptor downregulation, (EC50) (pM) |
| --- | --- | --- | --- | --- |
| B1 | 2.9 fold | 8.7 fold | 10.9% | 117 pM |
| B2 | 3.9 fold | 11.8 fold | 3.3% | 87 pM |
| B3 | 3.8 fold | 11.5 fold | 20.1% | 89.2 pM |
| B4 | 4.3 fold | 12.9 fold | 4.5% | 79.5 pM |
| B5 | 3.9 fold | 11.8 fold | 9.5% | 87 pM |
| B6 | 2.2 fold | 6.6 fold | 7.2% | 154 pM |
| B7 | 3.5 fold | 10.5 fold | 4.3% | 103 pM |
| B8 | 3.1 fold | 9.2 fold | 4.5% | 118 pM |
| B9 | 2.4 fold | 7 fold | 10.7% | 154 pM |
| B10 | 2.1 fold | 6.4 fold | 12.1% | 169 pM |
| B11 | 6.8 fold | 20.4 fold | 5.3% | 53.2 pM |
| B12 | 4.1 fold | 12.2 fold | 4.9% | 88.9 pM |
| B13 | 2.7 fold | 8.1 fold | 11.3% | 134 pM |
| B14 | 3.2 fold | 9.4 fold | 10.1% | 115 pM |
| B15 | 3.6 fold | 10.9 fold | 4.4% | 99.5 pM |
| B16 | 3.3 fold | 9.9 fold | 5.4% | 110 pM |
| B17 | 2 fold | 5.9 fold | 10.5% | 184 pM |
| B18 | 1.8 fold | 5.3 fold | 10.8% | 205 pM |
| B19 | 4.9 fold | 14.7 fold | 4.1% | 73.9 pM |
| B20 | 4.7 fold | 14.1 fold | 3.3% | 76.7 pM |
| B21 | 3.7 fold | 11.2 fold | 7.8% | 97 pM |
| B22 | 3.3 fold | 9.9 fold | 8.7% | 109 pM |
| B23 | – | – | 28.6% | 1024 pM |

These binders were tested against T1, histidine-tagged human Siglec-7 (NovoProtein) (human, UniProt Q9Y286 19-353) (assay: BLI, antibody captured).
T1 construct: Bought protein; also called recombinant human Siglec-7; recombinant Siglec-7; not shown: histidine tag
T1 sequence (Q9Y286 19-353 limits assumed): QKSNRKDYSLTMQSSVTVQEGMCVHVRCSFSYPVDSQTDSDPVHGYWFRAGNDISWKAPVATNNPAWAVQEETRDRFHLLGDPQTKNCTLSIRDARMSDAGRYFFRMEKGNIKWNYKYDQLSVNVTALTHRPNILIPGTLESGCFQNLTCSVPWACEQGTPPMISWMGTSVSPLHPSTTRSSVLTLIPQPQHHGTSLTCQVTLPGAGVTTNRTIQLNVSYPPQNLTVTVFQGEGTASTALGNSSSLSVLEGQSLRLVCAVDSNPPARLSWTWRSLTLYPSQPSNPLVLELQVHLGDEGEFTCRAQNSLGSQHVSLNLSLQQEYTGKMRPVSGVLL
Experimental: In this assay, the humanized antibodies were compared directly to S7AB. Briefly, the antibodies were captured on anti-human or anti-mouse IgG Fc Biosensors (Pall ForteBio). Varying concentrations (0-100 nM) of histidine-tagged human Siglec-7 (NovoProtein) were then bound to the captured anti-Siglec-7 surface (200 s association time, 900 s dissociation time). Multi-concentration kinetic analysis was performed using a 1:1 interaction model to extract association and dissociation rate constants (kₐ and kd, respectively) for each antibody. Apparent affinity constants (KD) were calculated from the ratio kd/kₐ.
The affinities of S7AB-H8 and variants S7AB-H8.1 through S7AB-H8.45 for human Siglec-7 were measured by BioLayer Interferometry according to the method described in Example 1 above.

| Binder | Kd | fold improvement over S7AB-H8 | koff | kon |
| --- | --- | --- | --- | --- |
| B1 | 0.574 nM | 1.8 fold | 7.05e-05 s⁻¹ | 123000 M⁻¹ s⁻¹ |
| B2 | 0.227 nM | 4.6 fold | 3.23e-05 s⁻¹ | 142000 M⁻¹ s⁻¹ |
| B3 | 0.294 nM | 3.6 fold | 6.05e-05 s⁻¹ | 206000 M⁻¹ s⁻¹ |
| B4 | 0.214 nM | 4.9 fold | 3.15e-05 s⁻¹ | 147000 M⁻¹ s⁻¹ |
| B5 | 0.351 nM | 3 fold | 4.08e-05 s⁻¹ | 116000 M⁻¹ s⁻¹ |
| B6 | 2.24 nM | 0.5 fold | 5.71e-05 s⁻¹ | 25500 M⁻¹ s⁻¹ |
